This data set deals with the molecule itself. As to the kind of experiment: electron microscopy.

B1: FliP (natural protein, Salmonella enterica serovar Typhimurium)
chain: QLPGLISQPLAGGGQSWSLSVQTLVFITSLTFLPAILLMMTSFTRIIIVFGLLRNALGTPSAPPNQVLLGLALFLTFFIMSPVIDKIYVDAYQPFSEQKISMQEALDKGAQPLRAFMLRQTREADLALFARLANSGPLQGPEAVPMRILLPAYVTSELKTAFQIGFTIFIPFLIIDLVIASVLMALGMMMVPPATIALPFKLMLFVLVDGWQLLMGSLAQSFYS
With B1, the binding result was “binds”.

Values taken from article doi:10.1101/2020.11.25.397760 (bioRxiv, 2020).
